Data as given in patent publication US20030166056A1, “Transmembrane protein as a downstream target of neurotrophin and ephrin receptor tyrosine kinases, DNA encoding same and monoclonal antibodies thereto” (New York University, priority 2000, published 2003).
“Also recorded” adds a separate entry of the source.

Tests used:
Format in all cases: cell-based
[1] = tested on: tyrosine phosphorylation of ARMS by TrkA in PC12 615 cells; test: Tyrosine phosphorylation of ARMS in PC12 615 cells (IP with 892 antiserum, pY99 immunoblot); conditions: for Block of NGF-induced tyrosine phosphorylation of ARMS: 100 nM pretreatment; for Induction of tyrosine phosphorylation of ARMS: 100 ng/ml NGF, 50 ng/ml EGF, 10 minutes and 2 hours
Protocol: Human embryonic kidney (HEK) 293 and 293T cells were maintained in Dulbecco's Modified Eagle's Medium (DMEM) containing 10% fetal bovine serum (FBS) supplemented with 100 U/ml penicillin, 100 μg/ml streptomycin, and 2 mM glutamine. Native PC12 cells, TrkA-overexpressing PC12 cells (615) (Hempstead et al., 1992), and TrkB-overexpressing PC12 cells were maintained in DMEM containing 10% FBS and 5% heat-inactivated horse serum with 30 U/ml penicillin, 30 μg/ml streptomycin, 2 mM glutamine, and 200 μg/ml G418.
For transient transfection experiments, HEK293 or HEK293T cells plated at 70-80% confluency in 10 cm dishes were subjected to calcium phosphate transfection with different combinations of the mammalian expression plasmids containing cDNAs for ARMS, rat TrkA, and rat HA-tagged p75 (Khursigara et al., 1999). PC12 615 cells or transiently transfected cells were harvested and lysed in 1 ml TNE buffer (10 mM Tris (pH 8.0), 150 mM NaCl, 1 mM EDTA, and 1% NP40) containing 0.12 mg/ml phenylmethylsulfonyl fluoride (PMSF), 2 μg/ml leupeptin, 1 μg/ml aprotinin, 10 mM sodium fluoride (NaF), and 1 mM sodium orthovanadate (Na3VO4) for 30 min on ice. Following centrifugation and removal of the insoluble fraction, protein concentration of the supernatant was determined by the Bio-Rad Protein Assay reagent (Bio-Rad Laboratories, Hercules, Calif.) with bovine serum albumin as the standard. Cell lysates of equivalent protein content were incubated for 4 hours to overnight with rotation at 4° C. with either anti-pan-Trk polyclonal antibody, C14 (1.5 μg) or anti-ARMS (892) antiserum (1:100). The immune complexes were immobilized on protein A-Sepharose beads (Sigma), washed six times with ice-cold TNE buffer, boiled in SDS-sample buffer, separated by sodium dodecyl sulfate-polyacrylamide gel electrophoresis (SDS-PAGE), and transferred onto PVDF membrane (Millipore, Bedford, Mass.). Immunoblotting was carried out by first blocking membranes in TBST buffer (20 mM Tris (pH 7.5), 500 mM NaCl, 0.1% Tween-20) containing 5% BSA for pY99 and 5% nonfat milk for others, and then incubating for 2 hours at room temperature or overnight at 4° C. in TBST buffer containing one of the following primary antibodies: anti-Trk 44 serum (1:2000); anti-phosphotyrosine pY99 antibody (0.1 μg/ml) (Santa Cruz Biotechnology, Santa Cruz, Calif.); anti-ARMS (892) antiserum (1:1000). Membranes were washed with TBST buffer and then incubated with horseradish peroxidase (HRP)-conjugated goat anti-rabbit (Roche Molecular Biochemicals, Indianapolis, Ind.) or goat anti-mouse secondary antibodies (Jackson ImmunoResearch Laboratories, West Grove, Pa.) at 1:10,000 and 1:7500 dilutions, respectively. Immunoreactive protein bands were detected by enhanced chemiluminescence using ECL reagents (Amersham Pharmacia Biotech, Piscataway, N.J.).
The high degree of correspondence in the expression of ARMS and neurotrophin receptors and the endogenous association with TrkA receptors led the present inventors to postulate that ARMS might function as a target for Trk receptor phosphorylation. To investigate this possibility, cell lysates from NGF-treated PC12 cells were prepared and the ARMS protein was immunoprecipitated with anti-ARMS antiserum, 892. Phosphorylation of ARMS protein was visualized by immunoblotting with an anti-phosphotyrosine antibody, pY99. Tyrosine phosphorylation of ARMS was detectable within a minute of NGF addition (FIG. 10A, top), closely following the time course of TrkA autophosphorylation (FIG. 10A, bottom). With continued NGF treatment, the phosphorylation of ARMS persisted for 25 hours (FIG. 10B).

[2] = target: T1, association between ARMS and the TrkA receptor (Homo sapiens, UniProt P04629); test: Coprecipitation of TrkA and ARMS in PC12 615 cells; conditions: NGF 100 ng/ml, IP anti-Trk C-14, blot anti-ARMS
T1 construct: expressed in transfected cells; host or cells: PC12 615 cells (TrkA-overexpressing PC12); ARMS is endogenous to these cells
Protocol: (§1) FIGS. 9A-9D show coprecipitation of TrkA and ARMS (FIG. 9A) and colocalization of TrkA and ARMS (FIGS. 9B-9D). In FIG. 9A, PC12 615 cells were treated for 10 minutes and 25 hours with NGF (100 ng/ml). Lysates were prepared and subjected to immunoprecipitation with anti-Trk C-14 antibody, followed by immunoblot with anti-ARMS antibody. Normal rabbit IgG was used as a negative control. In FIGS. 9B-9D, immunofluorescence analysis of ARMS and TrkA receptor in sympathetic neurons is shown. SCG sympathetic neurons were grown in the presence of 150 ng/ml NGF, fixed and immunostained as described in the Methods section of Example 1. The ARMS protein and the TrkA receptor were subjected to double immunostaining using an anti-ARMS antiserum (FIG. 9B) and an anti-Trk B-3 (FIG. 9C) monoclonal antibody and analyzed by confocal microscopy. […]
(§2) For transient transfection experiments, HEK293 or HEK293T cells plated at 70-80% confluency in 10 cm dishes were subjected to calcium phosphate transfection with different combinations of the mammalian expression plasmids containing cDNAs for ARMS, rat TrkA, and rat HA-tagged p75 (Khursigara et al., 1999). […] Following centrifugation and removal of the insoluble fraction, protein concentration of the supernatant was determined by the Bio-Rad Protein Assay reagent (Bio-Rad Laboratories, Hercules, Calif.) with bovine serum albumin as the standard. […]

[3] = target: T2, association between ARMS and the TrkA receptor; test: Coprecipitation of TrkA and ARMS in PC12 615 cells; conditions: NGF 100 ng/ml
T2 construct: expressed in transfected cells; host or cells: PC12 615 cells (TrkA-overexpressing PC12); ARMS is endogenous to these cells
Protocol: as §1, §2

[4] = tested on: distribution of ARMS in hippocampal neurons and PC12 cells; test: Immunofluorescence analysis of ARMS distribution; conditions: confocal immunofluorescence with antibody 892
Protocol: FIGS. 16A and 16B show a PC12 Immunofluorescence analysis. PC12 cells with (FIG. 16A) or without (FIG. 16B) NGF treatment cultured in Lab-Tek chamber slides (Nalge Nunc International) coated with collagen and poly-L-lysine were fixed with paraformaldehyde and permeablized with cold methanol. Cells were blocked with PBS containing 10% FCS and incubated with purified antibody (3 μg/ml) against the C-terminus of ARMS protein, 892 (Example 1). Primary antibodies were visualized using fluorescence-conjugated secondary antibodies (FITC-conjugated goat anti-rabbit IgG; Jackson Laboratories).
FIGS. 17A-17F show immunolocalization of ARMS and VAMP-2, a synaptic vesicle marker, in hippocampal neurons. Primary cultures of hippocampal neurons were obtained from rats E17-19 and maintained with Neurobasal medium (Gibco) supplemented with B-27 and 0.4 mM glutamine in Lab-Tek chamber slides (Nalge Nunc International) coated with poly-L-lysine. […] Primary antibodies were detected using fluorescence-conjugated secondary antibodies (FITC-conjugated goat anti-rabbit IgG and rhodamine-conjugated goat anti-mouse IgG (Jackson Laboratories)). […]

T1 sequence (P04629 33-796): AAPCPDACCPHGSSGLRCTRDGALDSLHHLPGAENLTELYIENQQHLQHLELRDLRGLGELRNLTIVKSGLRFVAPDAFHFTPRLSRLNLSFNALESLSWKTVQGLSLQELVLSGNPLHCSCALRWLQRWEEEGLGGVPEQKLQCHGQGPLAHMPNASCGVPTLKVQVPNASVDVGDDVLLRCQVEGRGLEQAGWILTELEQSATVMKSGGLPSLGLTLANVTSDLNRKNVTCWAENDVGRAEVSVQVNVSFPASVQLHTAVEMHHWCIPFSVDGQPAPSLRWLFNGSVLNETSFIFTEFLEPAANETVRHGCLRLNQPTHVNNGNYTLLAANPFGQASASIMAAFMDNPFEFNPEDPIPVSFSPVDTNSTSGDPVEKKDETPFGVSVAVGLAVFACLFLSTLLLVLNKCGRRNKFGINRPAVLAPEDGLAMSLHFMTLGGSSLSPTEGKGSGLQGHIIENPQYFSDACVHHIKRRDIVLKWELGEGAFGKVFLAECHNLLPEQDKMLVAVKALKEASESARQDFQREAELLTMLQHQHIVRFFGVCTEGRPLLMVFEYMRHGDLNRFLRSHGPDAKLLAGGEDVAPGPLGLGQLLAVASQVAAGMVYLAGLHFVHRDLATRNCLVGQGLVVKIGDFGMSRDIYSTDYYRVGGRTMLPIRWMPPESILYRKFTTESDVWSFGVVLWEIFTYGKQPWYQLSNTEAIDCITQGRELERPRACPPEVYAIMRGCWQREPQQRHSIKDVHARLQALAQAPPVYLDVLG
T1 sequence (Q9EQG6 whole entry partner): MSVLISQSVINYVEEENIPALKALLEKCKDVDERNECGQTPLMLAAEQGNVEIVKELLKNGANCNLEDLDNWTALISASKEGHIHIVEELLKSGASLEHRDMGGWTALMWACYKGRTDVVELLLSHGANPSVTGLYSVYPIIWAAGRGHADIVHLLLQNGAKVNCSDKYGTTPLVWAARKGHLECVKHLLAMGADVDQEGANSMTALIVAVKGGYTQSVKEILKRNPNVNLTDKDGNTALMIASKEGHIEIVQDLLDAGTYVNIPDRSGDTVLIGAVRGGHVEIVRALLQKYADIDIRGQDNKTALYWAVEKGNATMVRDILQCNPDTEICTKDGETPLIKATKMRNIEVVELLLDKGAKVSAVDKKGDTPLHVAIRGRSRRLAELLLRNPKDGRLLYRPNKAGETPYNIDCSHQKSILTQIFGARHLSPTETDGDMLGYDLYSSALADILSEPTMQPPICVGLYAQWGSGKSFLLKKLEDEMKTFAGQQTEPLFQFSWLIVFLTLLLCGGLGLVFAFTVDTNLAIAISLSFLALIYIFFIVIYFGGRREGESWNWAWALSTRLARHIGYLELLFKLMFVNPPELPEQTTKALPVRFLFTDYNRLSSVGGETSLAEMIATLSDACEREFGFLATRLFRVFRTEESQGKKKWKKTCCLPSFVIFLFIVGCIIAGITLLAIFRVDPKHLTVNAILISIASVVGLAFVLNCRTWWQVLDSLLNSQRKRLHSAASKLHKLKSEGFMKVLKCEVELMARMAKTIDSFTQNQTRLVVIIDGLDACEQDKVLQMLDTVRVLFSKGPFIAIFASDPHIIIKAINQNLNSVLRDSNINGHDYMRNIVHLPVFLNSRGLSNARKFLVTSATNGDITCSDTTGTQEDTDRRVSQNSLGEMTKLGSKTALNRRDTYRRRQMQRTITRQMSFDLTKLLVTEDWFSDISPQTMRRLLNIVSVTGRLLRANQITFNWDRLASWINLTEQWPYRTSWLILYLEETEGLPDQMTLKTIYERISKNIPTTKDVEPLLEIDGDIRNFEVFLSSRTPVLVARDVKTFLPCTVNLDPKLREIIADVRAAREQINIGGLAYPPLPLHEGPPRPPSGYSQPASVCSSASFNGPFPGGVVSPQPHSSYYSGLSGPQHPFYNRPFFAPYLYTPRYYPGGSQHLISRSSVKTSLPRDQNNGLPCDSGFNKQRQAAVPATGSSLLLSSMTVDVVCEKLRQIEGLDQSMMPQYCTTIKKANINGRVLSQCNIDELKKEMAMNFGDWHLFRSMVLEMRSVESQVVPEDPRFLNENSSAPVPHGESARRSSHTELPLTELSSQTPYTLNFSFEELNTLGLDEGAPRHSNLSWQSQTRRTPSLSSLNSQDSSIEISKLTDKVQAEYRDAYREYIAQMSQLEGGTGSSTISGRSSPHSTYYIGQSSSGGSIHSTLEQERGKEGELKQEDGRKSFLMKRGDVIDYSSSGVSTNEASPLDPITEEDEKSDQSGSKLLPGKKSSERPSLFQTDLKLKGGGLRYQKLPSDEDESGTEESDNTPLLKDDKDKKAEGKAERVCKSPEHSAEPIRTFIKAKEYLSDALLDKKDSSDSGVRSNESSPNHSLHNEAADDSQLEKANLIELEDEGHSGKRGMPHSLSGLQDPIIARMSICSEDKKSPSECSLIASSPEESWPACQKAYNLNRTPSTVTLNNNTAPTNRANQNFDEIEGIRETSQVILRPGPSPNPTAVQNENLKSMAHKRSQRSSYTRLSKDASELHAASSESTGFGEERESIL
T2 sequence (P04629 33-796): as the sequence (P04629 33-796) above
T2 sequence (Q9EQG6 whole entry partner): as the sequence (Q9EQG6 whole entry partner) above

Molecule: COC(=O)[C@@]1(O)C[C@H]2O[C@]1(C)n1c3ccccc3c3c4c(c5c6ccccc6n2c5c31)C(=O)NC4 [K252a, reference compound]
- Block of NGF-induced tyrosine phosphorylation of ARMS ([1]; PC12 615 cells, NGF treatment): potently blocked
- Block of NGF-induced tyrosine phosphorylation of ARMS ([1]; PC12 615 cells, NGF treatment, listed as K-252a): completely abolished

Molecule: insulin
- Induction of tyrosine phosphorylation of ARMS ([1]; PC12 615 cells): not elicited

B1: NGF: neurotrophin, ligand of TrkA; obtained from Harlan (protein, UniProt P01139 122-241, looked up)
Beta-nerve growth factor: SSTHPVFHMGEFSVCDSVSVWVGDKTTATDIKGKEVTVLAEVNINNSVFRQYFFETKCRASNPVESGCRGIDSKHWNSYCTTTHTFVKALTTDEKQAAWRFIRIDTACVCVLSRKATRRG
- Time to detectable ARMS phosphorylation ([1]; PC12 615 cells, NGF treatment): ≤ 1 min
- Induction of tyrosine phosphorylation of ARMS ([1]; PC12 615 cells): considerably more robust; also recorded: specifically induced
- Time of peak ARMS phosphorylation ([1]; PC12 cells, NGF treatment): ≤ 10 min
- Persistence of ARMS-TrkA association after treatment [2]: 25 h
- Association between ARMS and TrkA receptor [3]: NGF-dependent association
- Change in distribution of ARMS [4]: dramatic change in distribution; also recorded: localized at neurite tips
